Target: T1, odorranalectin (Odorrana grahami)
T1 chain: YASPKCFRYPNGVLACT
Assay: SPR; glycans on fetuin (lectin-type recognition of a glycoprotein); calcium not required

B1: fetuin (protein)
chain: IPLDPVAGYKEPACDDPDTEQAALAAVDYINKHLPRGYKHTLNQIDSVKVWPRRPTGEVYDIEIDTLETTCHVLDPTPLANCSVRQQTQHAVEGDCDIHVLKQDGQFSVLFTKCDSSPDSAEDVRKLCPDCPLLAPLNDSRVVHAVEVALATFNAESNGSYLQLVEISRAQFVPLPVSVSVEFAVAATDCIAKEVVDPTKCNLLAEKQYGFCKGSVIQKALGGEDVRVTCTLFQTQPVIPQPQPDGAEAEAPSAVPDAAGPTPSAAGPPVASVVVGPSVVAVPLPLHRAHYDLRHTFSGVASVESSSGEAFHVGKTPIVGQPSIPGGPVRLCPGRIRYFKI
Kd: 211 nM
